Reference: the supplement of paper PMC9732359
± gives the uncertainty stated by the source.

Experiment: protein stability index of a GFP-peptide fusion (yeast GPS) (PSI 1-4); higher = more stable; sorted into four equal gates, so the index is relative within each strain
Method in brief: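 Tiled 17-residue yeast protein peptides were fused downstream of GFP in a plasmid that also expresses Cherry, and the pooled library was carried in yeast. Mid-log cultures in leucine-free medium were sorted into four equal gates by GFP/Cherry fluorescence ratio, and plasmids from each gate were PCR-amplified and Illumina-sequenced, with reads assigned to strains by barcodes. The protein stability index for each peptide was each gate's read frequency times its gate number, summed.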

Sequence | protein stability index (doa10∆) | protein stability index (pdr5∆) | protein stability index (san1∆) | protein stability index (ubr1∆)
LVEYGFDPSRIKDLKQR [SMC2] | 2.04 ± 0.049 | 2.57 ± 0.074 | 2.16 ± 0.082 | 2.51 ± 0.064
TAAANTEKLSNGFSFTK [YOR098C/NUP1] | 2.81 ± 0.079 | 2.48 ± 0.057 | 2.56 ± 0.065 | 2.46 ± 0.044
AHNPELERYVKRCMDDL [RPO31] | 3.33 ± 0.062 | 3.45 ± 0.062 | 3.41 ± 0.037 | 3.35 ± 0.04
EKVRPTPGEVASKAIVQ [MCD1] | 3.16 ± 0.14 | 2.42 ± 0.084 | 1.55 ± 0.29 | 2.84 ± 0.25
VNGVPLRRVNARYVIAT [RPL6A] | 1.61 ± 0.095 | 1.9 ± 0.066 | 1.37 ± 0.11 | 1.23 ± 0.05
SAGRLYACISSRPGQSG [RPS8A] | 2.81 ± 0.095 | 3.07 ± 0.093 | 3.13 ± 0.088 | 3.03 ± 0.088
VFQDNVYKIYNHVMPLK [SIN4] | 1.65 ± 0.07 | 1.69 ± 0.096 | 1.69 ± 0.098 | 1.62 ± 0.049
EVSKDLIAVYYSFGGLL [RPB8] | 2.55 ± 0.051 | 2.7 ± 0.067 | 2.46 ± 0.079 | 2.72 ± 0.057
LAREVPQQSGKKLLINK [DPB4] | 1.43 ± 0.092 | 2.06 ± 0.063 | 1.86 ± 0.1 | 1.58 ± 0.067
TTGGDYILSLVSIKDST [YMR129W/POM152] | 1.99 ± 0.042 | 2.04 ± 0.034 | 1.89 ± 0.052 | 1.68 ± 0.028
ILRQRGPGFKFVDLNEK [SRB4] | 2.57 ± 0.11 | 1.64 ± 0.076 | 1.44 ± 0.21 | 1.75 ± 0.079
FSPVISQSLTSILVIVQ [SWI1] | 1.43 ± 0.048 | 1.66 ± 0.05 | 1.33 ± 0.076 | 1.33 ± 0.04
IKFLLTFIDKERHQKQL [YCS4] | 1.7 ± 0.18 | – | 1.58 ± 0.27 | –
ELCKKNESKIKELNEKI [RPN7] | 3.2 ± 0.12 | 2.73 ± 0.098 | 2.27 ± 0.11 | 2.47 ± 0.13
SRKRNEEEDAKNPLFSY [RPL31A] | 2.48 ± 0.078 | 2.91 ± 0.059 | 2.58 ± 0.074 | 2.12 ± 0.043
PITASMAAALPNPTPSM [PGD1] | 2.47 ± 0.083 | 2.54 ± 0.066 | 2.55 ± 0.073 | 2.51 ± 0.067
PRYHSKNSFQQALQMKA [SWP82] | 1.4 ± 0.033 | 1.82 ± 0.049 | 1.38 ± 0.062 | 1.45 ± 0.043
SPLQSSKSKQSFTQGEL [YMR129W/POM152] | 2.88 ± 0.055 | 2.8 ± 0.061 | 2.73 ± 0.055 | 2.95 ± 0.05
ICSCVNRGVKLEIVYGY [RPP1] | 2.38 ± 0.1 | 2.63 ± 0.063 | 2.43 ± 0.08 | 2 ± 0.049
CNAQPITRSVMRFNIEI [BRR2] | 2.71 ± 0.082 | 2.82 ± 0.066 | 2.77 ± 0.058 | 3.02 ± 0.064
GIRIISLTYKKISLRDI [RPN3] | 1.78 ± 0.068 | 1.4 ± 0.065 | 1.29 ± 0.15 | 1.5 ± 0.053
NRSAYDSKNTPNVFDKD [YDL088C/ASM4] | 2.41 ± 0.1 | 2.72 ± 0.075 | 2.9 ± 0.074 | 2.92 ± 0.091
YPVVEVERGRVGACTDE [RRP43] | 3.24 ± 0.1 | 2.8 ± 0.25 | 3.16 ± 0.23 | 3.03 ± 0.091
KVDIPLEVVQYIEDGRN [NUT2] | 2.46 ± 0.066 | 1.59 ± 0.065 | 1.34 ± 0.094 | 1.59 ± 0.046
IHQILLPTNPTLDKPNA [CSE2] | 2.56 ± 0.039 | 2.58 ± 0.041 | 2.37 ± 0.044 | 2.42 ± 0.034
KKNDEVSKPAFSFGAKA [YJL041W/NSP1] | 3.12 ± 0.14 | 3.02 ± 0.15 | 2.96 ± 0.094 | 3.07 ± 0.099
